According to patent US20030134779A1, “Method and composition for treatment and/or prevention of antibiotic-resistant microorganism infections” (priority 2002, published 2003):

Key:
Type in all cases: cell-based, Staphylococcus aureus
S. aureus SHY97-4320 [1] = assay: SDS-PAGE protein profile of whole cells
Description: Staphylococcus aureus SHY97-4320 cells growth in MHB containing test compounds were suspended in electrophoresis sample buffer containing 2% sodium dodecyl sulfate (SDS) and 5% 2-mercaptoethanol to a final concentration of 0.1 g per ml. The samples were heated to 100° C. for 5 min before being loaded for electrophoresis on a discontinuous 0.1% SDS-polyacrylamide gel (SDS PAGE) with 6% polyacrylamide stacking gel and 10 or 12% polyacrylamide running gel. Gels were run on a Mini-Protean® II apparatus (Bio Rad laboratories, Richmond, Calif.). Protein profiles were visualised by staining with coomassie brilliant blue R-250 or by silver staining.

S. aureus SHY97-3906 = assay: Checkerboard MICs and FIC index, penicillin with bovine LF
Description: (§1) The MICs were determined by both macrodilution (1 ml/tube) and microdilution (100 μl/well) in sterile 96 well microtiter plates (International Nunc, Napierville, Ill.) techniques in three separate experiments according to the National Committee for Clinical Laboratory Standards (1992 and 1999) in three separate experiments. Serial 2-fold dilutions in MHB of LF, LFC, antibiotic or combination of LF or LFC with antibiotic were inoculated with an overnight culture at a final inoculum of 10^6 cfu/ml in MHB. Effect of LF combination with antibiotic on MICs were determined by adding 0.5 mg or 1 mg/ml of LF to each antibiotic dilution. The MIC was defined as the lowest concentration of drug (highest dilution) that caused a complete inhibition of bacterial growth after an incubation of 18 h. Effect of LF or LFC combination with antibiotic on MIC was also determined by checkerboard method using 96 well microtiter plates. Each antibiotic dilution (50 μl) was serially added to the wells in vertical rows starting from the top (lower dilution) to the bottom. Lactoferrin or LFC (50 μl) were added to 50 μl of each antibiotic dilution and serially diluted starting at the left (lower dilution) to the right. After inoculation, the final concentration of antibiotic from top to bottom were 32 to 8, 2 to 0.5, 0.5 to 0.125 μg/ml for penicillin, cefazolin and neomycin, respectively. From left to right, the concentration of LF or LFC were 25 to 0.0244 mg/ml or 256 to 0.5 μg/ml respectively in a final volume of 100 μl/well. The microplate's were incubated at 37° C. for 24 h. Bacterial growth was measured optically at 540 nm using Spectra Max 250 Microplate Spectrophotometer System of Molecular Device (Fisher Scientific, Ottawa, Canada). Tubes were incubated at 37° C. for 18 h and bacterial growth was measured by visual examination and optically at 540 nm using a spectrophotometer (Philips PU 8800; Pye Unican Ltd, Cambridge, UK). The fractional inhibitory concentration (FIC) was calculated as described by Eliopoulos and Moellering (1991).
(§2) FIC antibiotic A=MICantibiotic A (in the presence of antibiotic B)/MICantibiotic A alone. FIC Index=FICantibiotic A+FICantibiotic B
(§3) The effects of the antibiotics were considered to be synergistic or indifferent when FIC Index was<1 or>1, respectively.

S. aureus PC-1 [2] = assay: as above
Description: as §1, §2, §3

S. aureus SHY97-4320 [3] = assay: as above
Description: as §1, §2, §3

S. aureus ATCC 25923 [4] = assay: as above
Description: as §1, §2, §3

S. aureus SHY97-4320 [5] = assay: WGA-gold labelling of cell wall and cell division, electron microscopy
Description: To investigate the mechanism of action of LF in combination with penicillin G on cell division, transmission electron microscopy was also performed on thin section of a β-lactamase producing S. aureus SHY97-4320. Bacterial cells were grown in MHB containing 8 μg/ml of penicillin G, 1 mg/ml LF alone or in combination for 4-h at 37° C. with agitation at 150 rpm. Bacteria were harvested and incubated or not for 2-h in 0.02 M Tris (pH 7.4) containing 0.15 M NaCl, 0.5 mg/ml and 50 μl of wheat germ agglutinin (WGA) gold (Sigma Chemicals, St-Louis, Mo.) for 2 h. Bacteria cell morphology was evaluated by transmission electron microscopy as previously described. Effects of treatments were evaluated and compared by “t” test. […] The WGA has an affinity for N-acetyl-β-D-glucosamyl residues and N-acetyl-β-D-glucosamine oligomer. After treatment with LF, S. aureus cells were less covered (P<0.005) with WGA-gold (FIG. 12 and Table 3).

[6] = tested on: S. aureus strains ATCC 25923, SHY97-3906, −4242 and RFT-5; assay: Bacterial growth in MHB; details: LF alone, sub-MIC (9.1, 36.6, 250 or 500 μg/ml); 4, 8 and 18-h; except for strain SHY97-3906
Description: (§4) The effect of LF or LFC at concentration sub-MICs alone or in combination with sub-MICs of antibiotics on bacterial growth rate of S. aureus, E. coli and K. pneumoniae was determined by monitoring bacterial cultures in MHB with the O.D.600 nm or by the count of colony forming unit per ml (cfu/ml). A volume of 2.5 ml of overnight cultures in MHB adjusted to 0.5-1 McFarland standard in saline were used to inoculate a final volume of 25 ml of fresh MHB containing the desired concentration of tested compounds. All flasks were then incubated at 37° C. with agitation (200 rpm) for 9 h. Aliquots were removed every hour to determine the culture turbidity using the spectrophotometer Philips PU 8800 (Pye Unican Ltd, Cambridge, UK). The combined antibiotic effect on bacterial growth was also determined using concentrations of LF in the presence of different concentrations of antibiotics. Briefly, a volume of 3 ml of fresh MHB containing desired concentration of drugs was adjusted to an optical density of 0.4 at 540 nm after an overnight culture. The culture was then incubated at 37° C with agitation (200 rpm). After incubation, aliquots were removed to determine the culture turbidity (OD540nm) or cfu/ml. To determine the influence of the level of iron on of the growth inhibition by the test compound, 5 μM of FeCl3 were added to the media.

S. aureus PC-1 [7] = assay: Bacterial growth in MHB; details: LF or LFC alone, sub-MIC
Description: as §4

S. aureus ATCC 25923 [8] = assay: Bacterial growth in MHB; details: LF alone, sub-MIC
Description: as §4

[9] = in combination with penicillin, checkerboard

B1: LF: bovine lactoferrin, 80-kDa iron-binding glycoprotein found in milk (protein, UniProt P24627 20-708, looked up)
Lactotransferrin: APRKNVRWCTISQPEWFKCRRWQWRMKKLGAPSITCVRRAFALECIRAIAEKKADAVTLDGGMVFEAGRDPYKLRPVAAEIYGTKESPQTHYYAVAVVKKGSNFQLDQLQGRKSCHTGLGRSAGWIIPMGILRPYLSWTESLEPLQGAVAKFFSASCVPCIDRQAYPNLCQLCKGEGENQCACSSREPYFGYSGAFKCLQDGAGDVAFVKETTVFENLPEKADRDQYELLCLNNSRAPVDAFKECHLAQVPSHAVVARSVDGKEDLIWKLLSKAQEKFGKNKSRSFQLFGSPPGQRDLLFKDSALGFLRIPSKVDSALYLGSRYLTTLKNLRETAEEVKARYTRVVWCAVGPEEQKKCQQWSQQSGQNVTCATASTTDDCIVLVLKGEADALNLDGGYIYTAGKCGLVPVLAENRKSSKHSSLDCVLRPTEGYLAVAVVKKANEGLTWNSLKDKKSCHTAVDRTAGWNIPMGLIVNQTGSCAFDEFFSQSCAPGADPKSRLCALCAGDDQGLDKCVPNSKEKYYGYTGAFRCLAEDVGDVAFVKNDTVWENTNGESTADWAKNLNREDFRLLCLDGTRKPVTEAQSCHLAVAPNHAVVSRSDRAAHVKQVLLHQQALFGKNGKNCPDKFCLFKSETKNLLFNDNTECLAKLGGRPTYEEYLGTEYVTAIANLKKCSTSPLLEACAFLTR
proteins of approximately 59, 42 and 27 kDa in protein profile (S. aureus SHY97-4320 [1]; 1 mg/ml LF in combination to 8 μg/ml penicillin G): absent
proteins of approximately 59, 42 and 27 kDa in protein profile (S. aureus SHY97-4320 [1]; compound alone: 8 μg/ml penicillin G or 1 mg/ml LF, 4-h of growth): absent
Decrease (of MIC of LF) (S. aureus SHY97-3906; by combination with penicillin): 16 fold
MIC LF (S. aureus SHY97-3906; [9]): 1560 µg/mL
Decrease (of MIC of LF) (S. aureus PC-1 [2]; by combination with penicillin): 64 fold
MIC LF (S. aureus PC-1 [2]; [9]): 390 µg/mL
Decrease (of MIC of LF) (S. aureus SHY97-4320 [3]; by combination with penicillin): 64 fold
MIC LF (S. aureus SHY97-4320 [3]; [9]): 390 µg/mL
Decrease (of MIC of LF) (S. aureus ATCC 25923 [4]; by combination with penicillin): 32 fold
MIC LF (S. aureus ATCC 25923 [4]; [9]): 780 µg/mL
cell division (S. aureus SHY97-4320 [5]; LF 1 mg/ml alone or in combination with penicillin): Groups of multiple undivided cell
coverage of cells with WGA-gold (S. aureus SHY97-4320 [5]; after treatment with LF, P<0.005): less covered
growth [6]: did not affect the growth
growth (S. aureus PC-1 [7]): delayed growth
growth (S. aureus ATCC 25923 [8]): delayed growth
